{"source": "patent US20120129768A1", "about": "(JIANGSU HANSOH PHARMACEUTICAL GROUP, published 2012)", "note": "Starred links: 1 amine or outer side, 2 acyl side, 3 side chain; linkers in the order of their positions; H or OH if unused. Non-standard residues stand in square brackets, D forms with d. No end group written: not given here. *: point of attachment. εLys = N[C@@H](CCCCN[*:1])C(=O)[*:2]; Palmitoyl = CCCCCCCCCCCCCCCC(=O)*; Aib = CC(C)(N)C(=O)O"}
{"target": "Glucagon-like peptide-1 receptor (GLP1R)", "experiment": "cell-based or functional assay", "units": {"EC50 (nM), cAMP-response-element luciferase reporter in HEK293 cells with GLP1R": "nM", "Maximum reaction rate (%)": "%"}}
{"binder": "HAEGTFTSDVSSYLEGQAAEFIVWLVKGRGKKGGPPPS[εLys](Palmitoyl) (not fully specified)", "note": "[HS-20005]", "EC50 (nM), cAMP-response-element luciferase reporter in HEK293 cells with GLP1R": 0.000236, "Maximum reaction rate (%)": 89.1}
{"binder": "HAEGTFTSDVSSYLEEQAAEFIVWLVKGRGKKGGPPPS[εLys](Palmitoyl) (not fully specified)", "note": "[HS-20007]", "EC50 (nM), cAMP-response-element luciferase reporter in HEK293 cells with GLP1R": 0.000549, "Maximum reaction rate (%)": 87}
{"binder": "H[Aib]EGTFTSDVSSYLEEEAAKEFIAWLVRGGPSSGAPPPSK (not fully specified (residue 40); ends and bridges not checked)", "note": "[HS-20004]", "EC50 (nM), cAMP-response-element luciferase reporter in HEK293 cells with GLP1R": 0.000373, "Maximum reaction rate (%)": 90.8}
